Experiment: label from the status in PepcDB records
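Also: failed if final PepcDB status was selected cloned or expressed and not failed if soluble or beyond.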

Sequence | protein production
MKNHLITVLVCCLFFIGCKDDKANSNQYDPSQPVVFTDFSPKEGGMRTRLYIEGSNFGNDPTKIHITIGGEKTKTIGADGKKIYCMVPSKAFDGIINVRVDGPDGKPIAEHTFEEEFKYTPATIVGTLLRKVDEDNNSAFQEGSFDEGASIPSNDCMVFDPKYKDGDNRLLFSSNHSDGLHLIDLTERTVKRLFPRTGYSTMYSFTFSADGDTLLFTDDHGQDNTTRANIYYSLRRENFRRIRPYNYGRTAYSLVYMDDGTIFYTTWWEGKVYKMIRNGAIPNIDENAEVAFSLSQISAVGGSHTILFRHPSNKFMYMLSDNFGAVFRADYDPVAKTFGNPSIIAGNMNDKSFKEGTGGSARFNKPQFGVFVKNEKYGEGIGPDNDQYDFYFCDRENHCIWKLDPHGVASLAAGRSNENADGKIWGYVDGNPLHEARFNQPAGLAYDPDTDMFYIGDIDNKGIRYMTTE | failed
MKRILVSLYEKEKYLDILRELHEKGWEIWASSGTAKFLKSNGIEANDVSTITGFENLLGGLVKTLHPEIFAGILGPEPRWDVVFVDLYPPPDIDIGGVALLRAAAKNWKKVKPAFDMETLKLAIEIDDEETRKYLAGMTFAFTSVYDSIRANQFVEGISLAFKREDLQLRYGENPHEKAFVYGKPAFEILHEGKTISFNNILDAENAWFMAKNLPRMGAVVVKHQSPCGAAIGEDKVEIVKKAIEADDESSFGGILAVNFEMDEEVAKSLKKYLEVIVAPSFTQEAIEVLSKKKVRLLKPGDYASWAGKMAFGSLVLSERKYPEGNFELVVGEPLSEKELEDLEFAYRVVEGAKSNAVLIAKDGVTVGIGSGQPSRKRAAWIATVMAGEKAKGAVAASDAFFPFPDSLEILAQAGVKAVVAPLGSIRDEEVIEKARELGITFYKAPSRVFRH | not failed
DRCYNCGGLDHHAKECKLPPQPKKCHFCQSISHMVASCPLKAQQGPSAQG | not failed
MSIITRLFNNSDFEKLNQLCKLYDDLGYPTNENDLKKRLKKITNHDDYFLLLLIKENKIIGLSGMCKMMFYEKNAEYMRILAFVIHSEFRKKGYGKRLLADSEEFSKRLNCKAITLNSGNRNERLSAHKLYSDNGYVSNTSGFTKQL | not failed
RRLVTYVLVHGTHSAGAFWTPIARELGLRGHRVVMVDQPRHGAEAFVAESYQRQDLAAMAVEPSPLKGLGLDDYEARVAGIVRRAARNGPVVLVGHSLGGVSVSRVGEAVPHLLHHICYMAAFCPSRVLPTADACTAAPENANAVSPVELTVGDPDRLGVLRLNFRTGVSGELALLKEMICADYPDADFRRILAGMQTDEPVAAYAGRAVGRAGRWGRIPRTYLRFGRDRTIATALQDRVIAEADAATPGNGFRVHDFPEASHVGPLDPTPVADVLDRLA | failed
MSRLSAAVVAIDGPAGTGKSSVSRRLARELGARFLDTGAMYRIVTLAVLRAGADPSDIAAVETIASTVQMSLGYDPDGDSCYLAGEDVSVEIRGDAVTRAVSAVSSVPAVRTRLVELQRTMAEGPGSIVVEGRDIGTVVFPDAPVKIFLTASAETRARRRNAQNVAAGLADDYDGVLADVRRRDHLDSTRAVSPLQAAGDAVIVDTSDMTEAEVVAHLLELVTRRSEAVR | not failed
SDISLLLDVANAACHKGHVADARSIYEGVLAVRPGFAPARLGQALSHAVVNEFAEAERIINEEVLAEAPEDTDAKALLGLTYFLAGRDEEARDVLRPVAEGDTPAAYVARG | failed
MKTRDKIIQASLELFNEHGERTITTNHIAAHLDISPGNLYYHFRNKEDIIRCIFDQYEQHLLLGFKPYADQKVDLELLMSYFDAMFYTMWQFRFMYANLADILARDDTLKARYLKVQQAVLEQSIAVLNQLKKDGILQIEDERIADLADTIKMIIGFWISYKLTQSSIATISKASLYEGLLRVLMIFKAYSTPDSLANFDRLEQHFRSQSN | not failed
MIDALLNFDFIRYSLISGLLIGFIAPLIGAFIVVRRLSLIADALSHVTLGGISFGMFLLTIIPVFSVINPMWFGILFAVIGALLIEKLRTSFSNYQEIAIPIIMSAGIALSAIFISLADGFNQEIVGLLFGSISAVNISDLTTIIIITIIVLIFIVLFYKELFILSFDEEYSKVIGIPKWIQFLFIVIVAMVISASMRVVGILLVSALITLPIAISMRITKGFKQLIALSVILGELSVILGLIIAFYMNISPGGVIVVLLVLMLILTMIIQKLKIKFKKGVV | failed
RKKEDKYDFRALGLAIKEARKKQGLTREQVGAMIEIDPRYLTNIENKGQHPSLQVLYDLVSLLNVSVDEFFLPASSQVKSTKRRQLENKIDNF | failed
MTEKSQEPTAALDAEQVAAYLSQHPEFFVEHDELIPELRIPHQPGDAVSLVERQVRLLRERNIEMRHRLSQLMDVARENDRLFDKTRRLVLDLLDATSLEDVVSTVEDSLRHEFQVPYVSLILFSDSSVSVGRSVSSAEAHQAIGGLLSGGKTVCGVLRPHELAFLFGESDRDEIGSAAVVSLSFQGLHGVLAIGSPDPQHYKSSLGTLFLGYVAEVLARVLPRFSSPLRSVR | not failed
MDNLMLNNKIYLEGTVVSELEFSHEMYGEGFYTFNLEVMRLSDSKDLLNITVSERLITTMDLKIGTEIVVEGQLRSYNKFIDGNNKLILTVFARNIEYCEERSKNPNEIFLDGFICKEPVYRTTPFGREIADLLLAVNRSYNKSDYIPTIAWGRNSRFCKTLEVGDNIRIWGRLQSREYQKKISETEVVKKIAYEVSISKMEKVSVESEQNESGEEISLEHHHHHH | failed
MNKALWYVVLPALLVTVLAQRFGHLTVNFPLKSVFGGAAPAEAALHRRIALPSGFSLTVYAADLPGARMLRFTRTGDLLVSQPNAGAIVLLEKDADGDGRPDGRRQLLTGLSRPHGLDLRDGWLYVAETYGVVRVRYDAAQRQISGAPEMVVSGIPGGGNHWSRTLKFGPDGGMYVSVGSSCNVCIEDDPLRATLLRFEPDGTKREIYATGLRNTVGFDWRPGSRELYGTDNGRDLLGDDFPPCELNRIEKGGFYGWPYANGNRVPDPDYGRGHEADIRRSLPPVHEFRAHVAPLGMVFLKGGGLPQDYRGAALVALHGSWNRSKKQGYEVVSLHFGADGRIAERPFMTGFNVDEDVIGRPVDVAEGPDGAIYVSDDYAGAIYRVLYRPPVTASHD | failed
MKILVDENMPYARELFSRLGEVKAVPGRPIPVEELNHADALMVRSVTKVNESLLSGTPINFVGTATAGTDHVDEAWLKQAGIGFSAAPGCNAIAVVEYVFSALLMLAERDGFSLRDRTIGIVGVGNVGSRLQTRLEALGIRTLLCDPPRAARGDEGDFRTLDELVQEADVLTFHTPLYKDGPYKTLHLADETLIRRLKPGAILINACRGPVVDNAALLARLNAGQPLSVVLDVWEGEPDLNVALLEAVDIGTSHIAGYTLEGKARGTTQVFEAYSAFIGREQRVALETLLPAPEFGRITLHGPLDQPTLKRLAHLVYDVRRDDAPLRKVAGIPGEFDKLRKNYLERREWSSLYVMCDDETAAALLCKLGFNAVHHPAH | not failed
MLLIFFKKYEQSDIMRKLFLLSILMIGVIVAFAGCVEESKTTTQLQQTTQSESQKAETQPKLGVNVVRYAETFKLYPHWDEGYCVVADSVGNKFVLVEGNAKAPNISDGKIIKVPVKRIVTDFYCPIISAADILNAYHHTIVGAPKYAVEKSPKLKELFDEGKVVDIGSPSKGVNYELIVNLTPDIVFLGDWKSEDVVEEKLKELGVTVSRFYTYQEPTYMGRVEWIKFAAAFWGSNAYKKADKWFENVVKVRENILKKVQNVTNEPTVVIFSWSKTKNMPGIYGNDSYYSKMIAEFKGKNVFDDYNRGYQYVDKETFYERAMNADVVILIWFYGDVKTKEDLLKINPNFAEFKAFKTGRFYVSHPDYYVWEARDPAGYMMDFAKMIHPELFGGDDDLKYYYKIK | failed
MDIRQVTETIAMIEEQNFDIRTITMGISLLDCIDPDINRAAEKIYQKITTKAANLVAVGDEIAAELGIPIVNKRVSVTPISLIGAATDATDYVVLAKALDKAAKEIGVDFIGGFSALVQKGYQKGDEILINSIPRALAETDKVCSSVNIGSTKSGINMTAVADMGRIIKETANLSDMGVAKLVVFANAVEDNPFMAGAFHGVGEADVIINVGVSGPGVVKRALEKVRGQSFDVVAETVKKTAFKITRIGQLVGQMASERLGVEFGIVDLSLAPTPAVGDSVARVLEEMGLETVGTHGTTAALALLNDQVKKGGVMACNQVGGLSGAFIPVSEDEGMIAAVQNGSLNLEKLEAMTAICSVGLDMIAIPEDTPAETIAAMIADEAAIGVINMKTTAVRIIPKGKEGDMIEFGGLLGTAPVMKVNGASSVDFISRGGQIPAPIHSFKN | not failed
MTTFNYTNILTQAVDELSESQSYKGLFHQHKDGDPLPSAKSLYKIVELARAIIFPGYFGNSTVNSHTINYHIGVNVETLFGLLTEQILAGLCFGQENSKNATDDNEPCRETASLLAARFISKLPELRRILATDVEAAYYGDPAATCFGEIISCYPAIRAISNYRIAHELLILGVPLIPRFITEMAHSETGIDIHPGAQIGHHFTIDHGTGVVIGATSIIGNNVKLYQGVTLGAKSFPLDNNGNPIKGIPRHPILEDDVIVYSNATILGRVTIGKGATVGGNIWVTENVPAGSRIVQRKNKDELEHHHHHH | not failed
MLLALLSLGTWPAVLTLLERRGRLPQHTYLDYSITNLLAAIIIAFTFGQIGSTKPDSPNFITQLAQDNWPSVMFAMAGGIVLSLGNLSTQYAWALVGLSVTEVITSSITVVIGSTLNYFLDDKINKAEILFPGVACFLIAVCLGSAVHRSNADDNKAKLRDFETAKQEASGPSTEIGTNSSKDLETNVTTKPKEGTARFLIELENTRAIKVFGKRKIIGLAITFFAGLCFSLFSPAFNLATNDQWNRLKQGVPKLVVYTAFFYFSVSCFIIALILNVVFLYYPVLGLPKSSFKAYLNDWNGRYWAFLAGFLCGFGNGLQFMGGQAAGYAAADSVQALPLVSTFWGVVLFGEYRRSSRKTYLLLFCMLFMFISAVAVLMASSGHRK | failed
MSGSEYSEVDVNEGDSIWALADQYAAKSDMAKADFVSWVEKENNLTDGHVKAGDYVVIPVHETKLQRSDSTIQLANQLEHHHHHH | not failed
MQLPLHQVAQPAFYISVVPDMVGGRLSSHDRDLLGLAHQLAGQDGAVLAVVFGEHKESAFATAGVDRLLVLQGSEFEGYAPEQRVQGLRAVDNQFSPRHWLLPDSRTGGGELGRRFAAALGERPATRVWQVKDGQCIGRAGAGLQDLARPVVRLILAAAECAEPVSETRHEALPVELSTSVARSLARIEDLGAVAVDPAAIPMAEAEFIFSGGNGVKDWPLFHQTAAALGATEGASRVAVDDGFMARDRQVGASGIWVTARVYVAVGISGAIQHLQGIGACDKVVAINLDPGCDMIKRADLSVIGDSAEILKALIAAVAAYRNDAKRDAA | failed
MNVIRLKEDKFREALRLSEYAFQYKVDEDRLQQQITKMKESHEVYGIMEGENLAAKLHLIPFHIYIGKEKFKMGGVAGVATYPEYRRSGYVKELLQHSLQTMKKDGYTVSMLHPFAVSFYRKYGWELCANLLVCHMTKSDLVMKKQVNGTVKRFNKESHPEEVEKLYETFAELFSGMLVRNEKWWLQAVYDDLTLAIYYDENQTAAGYMLYKIENYKMTVEEFVPLHNEARNGLWNFICQHDSMIKDLEMTVSENEPLLYTLQEPRVKTEIKPYFMGRIVDVEQFLKQYELNWNNVQQEVILHITDSFAQWNNITVRIANHEITIIEEPIDKGIKLDINALSTILFGYRRPLELNELELISGSEEEIRAFESVVPVRKPFIYDFF | not failed
MDLPVMPPVKPMLAKSVAKIPPGMHYEAKWDGFRAIVYRDGDEVELGSRTGKPLTRYFPELVVAVRERLPERCVVDGEIVIARDGHLDFDALTERIHPADSRVRTLAERTPASLVAFDLLALDDASLLDVGLADRRALLVRALSGVTPPVHVAPATDDIEVARRWFEQYEGAGLDGVVAKPLDLRYRQDERAMYKIKHERTADVVVAGYRFHKSGPVVGSLLLGLYDDRGLLQHVGVSAAFTMKRRAELVAELEPLRMDDARGHPWAAWAEEAAHESARLPGAPSRWSGKKDLSWVPLRPERVVEVAYDHMENGARFRHTARFRRWRPDRTPESCTYAQLEEPVRYDLAEILGGPLEHHHHHH | failed
